Data: the DeepSol protein solubility set

Experiment: soluble on expression in E. coli; label from the status in PepcDB or PDB records

Row | Sequence | soluble on expression in E. coli
1 | MSHLKDPTTQYYTGEYPKQKQPTPGIQAKMTPVPDCGEKTYVGSGRLKDRKALVTGGDSGIGRAAAIAYAREGADVAISYLPVEEEDAQDVKKIIEECGRKAVLLPGDLSDEKFARSLVHEAHKALGGLDIMALVAGKQVAIPDIADLTSEQFQKTFAINVFALFWLTQEAIPLLPKGASIITTSSIQAYQPSPHLLDYAATKAAILNYSRGLAKQVAEKGIRVNIVAPGPIWTALQISGGQTQDKIPQFGQQTPMKRAGQPAELAPVYVYLASQESSYVTAEVHGVCGGEHLG | soluble
2 | MIRVYIALGSNLAMPLQQVSAAREALAHLPRSRLVACSPLYRTKPLGPQDQPDFLNAVVALDTSLPPEQLLDHTQAIERNQGRVRKEQRWGPRTLDLDIMLYGDQVIKTDRLTIPHYGLKAREFMLYPLADIAPDLIFPDGESLSECLKRVDKNGLVLW | soluble
3 | MGSDKIHHHHHHAREAEFKKIKESWTLQADGTQVYRQSKVLTLYTHTAMNRTYGESFITYDPRYQTLQIHESYTRQKDGNIVKTPANALVEVLPSAAANAPAFNALREMVVVHTGLELGATIYLDYSITTKPGYLPGIQICRLLEHSSPVKEYEISITVPRGQHLEYALNNHKEKASVTESEGMKQVSWTLKNLPALSREPQVSVIGGDLPLLTATTEEKPLSFLTSQWQPEGDAGIRALAGKLTAGAKDDKEKVTAIRDYVIDNLYYSSLPLAESGYRIRPAAEVIRSAYGTEAEKANLMAALLKAAGLKAGIGAVCAPSENTASLGVGSIRELFVWTDAGGSQQALSLKGKTPSAVSWQKDYAYVASLTQPFELNLPPVTLRKDYALQPDAANAKDGYLVFTLPVERGSLAGSQYVRFNSKRTSNLLLPGLADESFTYTVDTPAGMEPVTRPMEKKMDNAVGTLTISIRPEGAKTRVIRSLKLKKQMIRPADYAAFRQLMTEYGAVDGLTLVYRKPLP | not soluble
4 | MPNTADQVDPLLASLSHFVDHTDLLAEHTMNAVEWEAVEVLMPRILRGKSKEDVKQLLLAEIDGMSKKRLDAVLAGETLEESSSSEDEEEQVIGSAGESEKSESPEIPEPEAKMEEQAVEAAEASEASDDGREDGEIRDDQGNTTSTPPDPGSPKSPEKGEAEQLDTDEEIDRLLEEDLEDFL | soluble
5 | MAHHHHHHMIYGKDGKYPVGEILEYNNYNLSGQSLVEKKEREKLSIDYYEDLRKAAECHRQVRKHMQAFIKPGKKMIDIAQETERKTKELILAEKLKCGWGFPTGCSLNHCAAHYTPNYGDETVLKYDDVCKLDFGVHVNGYIIDCAFTIAFNEKYDNLIKATQDGTNTGIKEAGIDARMCDIGEAIQEAIESYEIELNQKIYPIKAISNLRGHSINKYIIHGGKCVPIVRQKEKNEIMEEGELFAIETFASTGKGYVNHENECSHYMRNPEKQFVPIRLNSAKTLLKVINDNFDTLPFCNRWLDDLGQTRHFMALKTLIDLNIVEPYPPLCDIKNSFTSQMEHTILLRPTCKEVLSRGPDF | soluble
6 | MSLERIEPGPDTIRVLLTTDNHVGAFENDPIRGDDAWKTFDEITTIAKDKDVDMIIQGGDLFHINKPTKKSMYHVMKSLRSNCMGDRPCELELLSDPAQSLNNGFDEINYEDPNLNISIPVFAISGNHDDATGESLLLALDVLAVTGLINNFGKVKNTEAITVSPILLQKGQTKLALYGMSNVRDERLHRLFRDGGVKFQRPNIQTEDWFNLFVIHQNHAAHTYTSSIPESFLPNFLDFILWGHEHECIPYPVHNPETTFDVLQAGSSVATSLAEGEVADKKIFILNIKGKDYSIEPVELKTVRPFVLREIILLKTDLIPGAASKADVIAYLTDEVEKSIERANKQFSEGHHHHHH | soluble
7 | MGSDKIHHHHHHMFQPPLIAFLTDFGLEDAFVGVMKGVIATICREAQVIDLTHAISAQNVRQAAFHLDRSISYFPAETIFVCVVDPGVGTARRAIGVEAGPYRFIAPDNGLLTPVFERWADAKCHELTNPAYQLANPSATFHGRDLFSPAAAHLATGVPLNAFGSAIDVANCTRIELWQNKPCDNGKVWTGEVIATDHFGNLITSFEASMLSDGEDWTVKAGNAEPLPILRTYGEVEQGKPLAYIGSSGMIEIAIRNGSASAELRVGGGDEVELRKG | not soluble
8 | MSRVYTLLTGLLLSLIALSLQAAQLTASVDRTRLNAGETVELTLETDDVTQFGKPDMSSLEASFEVRDTRQLNSLKTLDGSSQATTRWIVTLLPRETGSVIIPSLQLGELKSQPLTLQVMQSETKEPTSHLASIFIEASLDQDSVYVQAQAVLTLRVYHSVSLFDDSSLN | not soluble
